Assay results from patent publication US20100151524A1 (DARWIN DISCOVERY, published 2010).
One block for each molecule: values may come before it.

T1: sclerostin (coated on the ELISA surface, Example 12) (Homo sapiens (Human), UniProt Q9BQB4 24-213)
T1 construct: also called SOST; Beer
T1 sequence: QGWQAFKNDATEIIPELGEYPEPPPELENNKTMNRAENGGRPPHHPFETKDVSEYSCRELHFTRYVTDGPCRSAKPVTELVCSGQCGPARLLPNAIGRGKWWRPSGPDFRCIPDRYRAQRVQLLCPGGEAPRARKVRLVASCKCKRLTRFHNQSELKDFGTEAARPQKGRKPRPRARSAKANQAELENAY

T2: FLAG epitope-tagged Beer (human Beer, secretion signal removed, C-terminal FLAG tag, from … (human, UniProt Q9BQB4 24-213))
T2 construct: also called FLAG-Beer; H. Beer
T2 sequence: T1 sequence

B1: BMP receptor II-FC fusion protein (Fc fusion)
chain: SQNQERLCAFKDPYQQDLGIGESRISHENGTILCSKGSTCYGLWEKSKGDINLVKQGCWSHIGDPQECHYEECVVTTTPPSIQNGTYRFCCCSTDLCNVNFTENFPPPDTTPLSPPHSFNRDET
notes: also called BMPR-II; type II receptor; not shown: Fc part and any linker
B2: BMP-6 (ligand, UniProt P22004 382-513, looked up)
chain: QQSRNRSTQSQDVARVSSASDYNSSELKTACRKHELYVSFQDLGWQDWIIAPKGYAANYCDGECSFPLNAHMNATNHAIVQTLVHLMNPEYVPKPCCAPTKLNAISVLYFDDNSNVILKKYRNMVVRACGCH
B3: BMP-4 (ligand, UniProt P12644 293-408, looked up)
chain: SPKHHSQRARKKNKNCRRHSLYVDFSDVGWNDWIVAPPGYQAFYCHGDCPFPLADHLNSTNHAIVQTLVNSVNSSIPKACCVPTELSAISMLYLDEYDKVVLKNYQEMVVEGCGCR
B4: recombinant human BMP-5 protein (R&D systems) (ligand, UniProt P22003 317-454, looked up)
chain: AANKRKNQNRNKSSSHQDSSRMSSVGDYNTSEQKQACKKHELYVSFRDLGWQDWIIAPEGYAAFYCDGECSFPLNAHMNATNHAIVQTLVHLMFPDHVPKPCCAPTKLNAISVLYFDDSSNVILKKYRNMVVRSCGCH
notes: Commercial protein

Experiments:
BMP-6 [1] = target: B2; assay: ELISA-based competition: sclerostin coated, BMP-6, DAN titrated; competitor sclerostin
BMP-6 [2] = target: B2; assay: ELISA-based competition: sclerostin coated, BMP-6 11 nM; competitor sclerostin
BMP-6 [3] = target: B2; assay: ELISA-based competition: sclerostin coated (300 ng/well), BMP-6 11 nM, receptor-FC titrated; competitor sclerostin
BMP-6 [4] = target: B2; assay: ELISA-based competition: sclerostin coated, BMP-6, receptor-FC titrated; competitor sclerostin
Protocol: (§1) A 10-fold molar excess of the BMP receptor was sufficient to reduce binding of sclerostin to BMP-6 by approximately 50%. This competition was also observed with a BMP receptor II-FC fusion protein (IC₅₀=36 nM) and DAN (IC₅₀=43 nM).

[5] = target: T1, sclerostin (coated on the ELISA …); assay: ELISA, sclerostin-coated surface (300 ng/well), BMP-6 in solution
Protocol: as §1

[6] = target: T2, FLAG epitope-tagged Beer (human Beer, …); assay: anti-FLAG immunoprecipitation of FLAG-tagged Beer incubated with BMP-4, anti-BMP-4 western blot; Cerberus with BMP-4 as positive control on the left part
Protocol: The interaction of Beer with proteins from different phylogenetic arms of the TGF-β superfamily were studied using immunoprecipitation methods. Purified TGFβ-1, TGFβ-2, TGFβ-3, BMP-4, BMP-5, BMP-6 and GDNF were obtained from commerical sources (R&D systems; Minneapolis, Minn.). A representative protocol is as follows. Partially purified Beer was dialyzed into HEPES buffered saline (25 mM HEPES 7.5, 150 mM NaCl). Immunoprecipitations were done in 300 ul of IP buffer (150 mM NaCl, 25 mM Tris pH 7.5, 1 mM EDTA, 1.4 mM β-mercaptoethanol, 0.5% triton×100, and 10% glycerol). […] The proteins were resolved by SDS PAGE and Beer associated BMP-5 was detected by western blot using anti-BMP-5 antiserum (Research Diagnostics, Inc) (see FIG. 5).

[7] = target: T2, FLAG epitope-tagged Beer (human Beer, …); assay: Beer ligand binding assay (FLAG-Beer captured on an anti-FLAG plate, BMP-5 titrated, ELISA detection), FIG. 6
Protocol: FLAG-Beer protein (20 ng) is added to 100 ul PBS/0.2% BSA and adsorbed into each well of 96 well microtiter plate previously coated with anti-FLAG monoclonal antibody (Sigma; St Louis Mo.) and blocked with 10% BSA in PBS. This is conducted at room temperature for 60 minutes. This protein solution is removed and the wells are washed to remove unbound protein. BMP-5 is added to each well in concentrations ranging from […] to 500 nM in PBS/0.2% BSA and incubated for 2 hours at room temperature. The binding solution is removed and the plate washed with three times with 200 ul volumes of PBS/0.2% BSA. BMP-5 levels are then detected using BMP-5 anti-serum via ELISA (F. M. Ausubel et al (1998) Current Protocols in Mol. Biol. Vol 2 11.2.1-11.2.22). Specific binding is calculated by subtracting non-specific binding from total binding and analyzed by the LIGAND program (Munson and Podbard, Anal. Biochem., 107, p 220-239, (1980).

- IC50 (BMP-6 [1]): 43 nM
Molecule: DAN (competitor in Example 12)

- reduction of binding of sclerostin to BMP-6 at a 10-fold molar excess of receptor (BMP-6 [2]): 50%
- IC50 (BMP-6 [3]): 114 nM
Molecule: BMP receptor IA (FC fusion construct)

Molecule: B1
- IC50 (BMP-6 [4]): 36 nM

Molecule: B2
- Kd [5]: 3.4 nM

Molecule: B3
- binding result [6]: no binding

Molecule: B4
- Kd [7]: 15 to 30 nM
